In patent US20180275124A1 (DEUTSCHES KREBSFORSCHUNGSZENTRUM STIFTUNG DES FFENTLICHEN …, published 2018):

How the values were obtained:
Assay in all cases: surface plasmon resonance, Dectin-1 immobilized
[1] = target: T1, recombinant murine annexin A1 (murine, UniProt P10107 1-346)
T1 construct: Expressed in E. coli from pET41a with C-terminal FLAG tag, PreScission site and Protein A tag; the Protein A tag is cleaved off; also called mAnx1; mAnxA1; not shown: C-terminal FLAG tag and what remains of the PreScission site after cleavage
T1 sequence (looked up): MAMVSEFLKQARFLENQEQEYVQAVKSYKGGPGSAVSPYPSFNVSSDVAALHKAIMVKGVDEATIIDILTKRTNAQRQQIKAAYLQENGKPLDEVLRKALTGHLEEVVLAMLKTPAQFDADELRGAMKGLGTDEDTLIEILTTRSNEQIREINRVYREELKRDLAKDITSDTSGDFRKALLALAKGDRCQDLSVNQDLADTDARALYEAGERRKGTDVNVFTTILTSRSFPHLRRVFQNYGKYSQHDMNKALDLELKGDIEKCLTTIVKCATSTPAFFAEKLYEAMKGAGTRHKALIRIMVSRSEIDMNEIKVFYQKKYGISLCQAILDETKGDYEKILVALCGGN

[2] = target: T2, recombinant murine annexin A13 (murine, UniProt Q99JG3 1-317)
T2 construct: Recombinant protein; also called mAnxA13; AnxA13
T2 sequence (looked up): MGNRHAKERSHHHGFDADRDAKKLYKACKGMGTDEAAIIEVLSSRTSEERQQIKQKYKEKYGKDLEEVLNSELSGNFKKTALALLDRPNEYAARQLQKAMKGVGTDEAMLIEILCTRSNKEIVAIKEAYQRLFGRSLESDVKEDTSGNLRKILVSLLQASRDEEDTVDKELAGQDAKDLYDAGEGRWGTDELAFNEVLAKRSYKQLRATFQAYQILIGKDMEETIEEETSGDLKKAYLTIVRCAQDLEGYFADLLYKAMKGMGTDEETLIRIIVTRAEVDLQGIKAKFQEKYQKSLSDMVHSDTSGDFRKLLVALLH

[3] = target: T3, recombinant murine annexin A5 (murine, UniProt P48036 1-319)
T3 construct: Recombinant protein; also called mAnxA5; AnxA5
T3 sequence (looked up): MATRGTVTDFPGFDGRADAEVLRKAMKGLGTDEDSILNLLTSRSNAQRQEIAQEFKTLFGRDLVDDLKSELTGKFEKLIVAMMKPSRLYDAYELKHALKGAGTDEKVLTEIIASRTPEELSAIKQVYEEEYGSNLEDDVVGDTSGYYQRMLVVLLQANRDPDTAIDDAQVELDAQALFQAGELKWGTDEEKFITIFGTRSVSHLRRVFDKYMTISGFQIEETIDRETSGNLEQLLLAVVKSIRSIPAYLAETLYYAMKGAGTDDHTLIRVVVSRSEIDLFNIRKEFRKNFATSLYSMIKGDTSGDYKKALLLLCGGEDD

[4] = target: T4, murine annexin A1 core domain (murine, UniProt P10107 41-346, limits assumed)
T4 construct: domain: core domain; also called mAnxA1 core; AnxA1 core domain
T4 sequence (looked up): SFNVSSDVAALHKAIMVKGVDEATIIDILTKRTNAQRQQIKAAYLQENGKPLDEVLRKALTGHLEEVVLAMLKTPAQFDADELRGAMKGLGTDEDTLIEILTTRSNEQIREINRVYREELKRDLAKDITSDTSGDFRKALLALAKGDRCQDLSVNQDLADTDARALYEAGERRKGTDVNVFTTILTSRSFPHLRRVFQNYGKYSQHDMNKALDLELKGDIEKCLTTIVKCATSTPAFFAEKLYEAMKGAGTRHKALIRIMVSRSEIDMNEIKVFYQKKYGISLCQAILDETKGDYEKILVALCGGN

Measured: Kd

B1: Dectin-1 (receptor)
chain: GHNSGRNPEEKDNFLSRNKENHKPTESSLDEKVAPSKASQTTGGFSQPCLPNWIMHGKSCYLFSFSGNSWYGSKRHCSQLGAHLLKIDNSKEFEFIESQTSSHRINAFWIGLSRNQSEGPWFWEDGSAFFPNSFQVRNTAPQESLLHNCVWIHGSEVYNQICNTSSYSICEKEL
~100 nM: all assays above
